From EP0866075B1, “Method to treat microbial infections by uncoupling of phosphotransferase system and appropriate agents therefor” (Arpida AG,, priority 1997, dated 1998)

Biological target: enzyme I (phosphoenolpyruvate-protein phosphotransferase, EC 2.7.3.9) of the E. coli phosphotransferase system (E. coli) (UniProt P08839)
Assay: cell-based or functional assay

“HPr protein (phosphorylcarrier protein HPr) (from UniProt P0AA04 1-85)” was tested, and the uncoupling P;Ipeptide/h was 2.7 Pi/peptide/h.
